The values that follow come from publication PMC10955495.

For test [1], the target named is Cluc‐PtoE2Fa (Populus tomentosa). Nature of the test: split reporter (BiFC, NanoBiT); luciferase complementation imaging (LCI): firefly luciferase complementation (Nluc / Cluc fusions) in young N. benthamiana leaves; three biological replicates.
Test [2] addresses Cluc‐PtoWAK106 (Populus tomentosa). Described as above.
Test [3] addresses Cluc‐PtoE2Fa (Populus tomentosa). In words: split reporter (BiFC, NanoBiT); LCI of Cluc-PtoE2Fa with PtoDPb1^Hap1/Hap2-Nluc in young N. benthamiana leaves with co-expressed PtoWAK106-GFP (compared with GFP).

In turn, PtoDPb1^Hap1‐Nluc (natural protein) registered a luciferase activity, percent stronger than with PtoDPb1^Hap2 in test [1] of 85.8%. In test [2], this substance came in with a luciferase activity, percent higher than with PtoDPb1^Hap2 of 37%. In test [3], this substance came in with a fold increase in luciferase activity with PtoWAK106-GFP against GFP of 3.61 fold and a luciferase intensity with PtoWAK106-GFP, percent higher than with PtoDPb1^Hap2 of 47.3%.
With PtoDPb1^Hap2‐Nluc (natural protein), the fold increase in luciferase activity with PtoWAK106-GFP against GFP in test [3] came out at 3.8 fold.
